Measurements as given in publication PMC9298051, “A phytobacterial TIR domain effector manipulates NAD^+ to promote virulence” (The New Phytologist, 2021).

How the values were obtained:
[1] = system: NC(=O)c1ccc[n+]([C@@H]2O[C@H](COP(=O)(O)OP(=O)(O)OC[C@H]3O[C@@H](n4cnc5c(N)ncnc54)[C@H](O)[C@@H]3O)[C@@H](O)[C@H]2O)c1; test: purified protein; conditions: room temperature, 60 min, 1–600 μM NAD+
[2] = target: T1, AbTIR (Acinetobacter baumannii, UniProt A0A009IHW8); test: HPLC of reaction products; assay type: biochemical; conditions: product v-cADPR
T1 construct: gene J512_3302; His-tagged recombinant AbTIR-His
T1 sequence (A0A009IHW8 whole entry): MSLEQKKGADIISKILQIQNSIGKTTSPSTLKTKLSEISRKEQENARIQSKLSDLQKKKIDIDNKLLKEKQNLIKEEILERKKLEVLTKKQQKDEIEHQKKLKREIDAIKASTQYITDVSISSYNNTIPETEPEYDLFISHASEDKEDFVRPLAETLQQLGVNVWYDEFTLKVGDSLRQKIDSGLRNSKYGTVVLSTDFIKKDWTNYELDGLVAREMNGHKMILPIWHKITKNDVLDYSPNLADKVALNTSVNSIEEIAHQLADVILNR

Row | Molecule | Km [1] | kcat [1] | HPLC of reaction products [2]
1 | HopAM1 (Pseudomonas syringae pv. tomato str. DC3000) | 174.8 µM | 0.00933 s⁻¹ | –
2 | NC(=O)c1ccc[n+]([C@@H]2O[C@H](COP(=O)(O)OP(=O)(O)OC[C@H]3O[C@@H](n4cnc5c(N)ncnc54)[C@H](O)[C@@H]3O)[C@@H](O)[C@H]2O)c1 [NAD^+] | – | – | NAD^+ hydrolase reactions were conducted with purified HopAM1 and AbTIR
